Biological target: Pyrene-labeled G-actin (rabbit, UniProt P68135 1-377, pyrene label)
Assay: cell-based or functional assay

fold decrease in actin monomer turnover in the elongation phase (tau, the inverse value of the rate constant) in the pyrene actin polymerization assay, 2 µM actin, relative to actin alone: ~1.4 fold
B1: human hexameric SEPT2/6/7 complex (complex)
chain 1: MSKQQPTQFINPETPGYVGFANLPNQVHRKSVKKGFEFTLMVVGESGLGKSTLINSLFLTDLYPERVIPGAAEKIERTVQIEASTVEIEERGVKLRLTVVDTPGYGDAINCRDCFKTIISYIDEQFERYLHDESGLNRRHIIDNRVHCCFYFISPFGHGLKPLDVAFMKAIHNKVNIVPVIAKADTLTLKERERLKKRILDEIEEHNIKIYHLPDAESDEDEDFKEQTRLLKASIPFSVVGSNQLIEAKGKKVRGRLYPWGVVEVENPEHNDFLKLRTMLITHMQDLQEVTQDLHYENFRSERLKRGGRKVENEDMNKDQILLEKEAELRRMQEMIARMQAQMQMQMQGGDGDGGALGHHV
chain 2: MAATDIARQVGEGCRTVPLAGHVGFDSLPDQLVNKSVSQGFCFNILCVGETGLGKSTLMDTLFNTKFEGEPATHTQPGVQLQSNTYDLQESNVRLKLTIVSTVGFGDQINKEDSYKPIVEFIDAQFEAYLQEELKIRRVLHTYHDSRIHVCLYFIAPTGHSLKSLDLVTMKKLDSKVNIIPIIAKADAISKSELTKFKIKITSELVSNGVQIYQFPTDDESVAEINGTMNAHLPFAVIGSTEELKIGNKMMRARQYPWGTVQVENEAHCDFVKLREMLIRVNMEDLREQTHTRHYELYRRCKLEEMGFKDTDPDSKPFSLQETYEAKRNEFLGELQKKEEEMRQMFVQRVKEKEAELKEAEKELHEKFDRLKKLHQDEKKKLEDKKKSLDDEVNAFKQRKTAAELLQSQGSQAGGSQTLKRDKEKKNNPWLCTE
chain 3: MSVSARSAAAEERSVNSSTMVAQQKNLEGYVGFANLPNQVYRKSVKRGFEFTLMVVGESGLGKSTLINSLFLTDLYSPEYPGPSHRIKKTVQVEQSKVLIKEGGVQLLLTIVDTPGFGDAVDNSNCWQPVIDYIDSKFEDYLNAESRVNRRQMPDNRVQCCLYFIAPSGHGLKPLDIEFMKRLHEKVNIIPLIAKADTLTPEECQQFKKQIMKEIQEHKIKIYEFPETDDEEENKLVKKIKDRLPLAVVGSNTIIEVNGKRVRGRQYPWGVAEVENGEHCDFTILRNMLIRTHMQDLKDVTNNVHYENYRSRKLAAVTYNGVDNNKNKGQLTKSPLAQMEEERREHVAKMKKMEMEMEQVFEMKVKEKVQKLKDSEAELQRRHEQMKKNLEAQHKELEEKRRQFEDEKANWEAQQRILEQQNSSRTLEKNKKKGKIF

Reference: PMC8928218 (Frontiers in Cell and Developmental Biology, 2022)
